The values below come from the supplement of paper PMC12042874.

± gives the uncertainty stated by the source.

The nature of the data set: amyloid nucleation score (Sup35N fusion, yeast selection) (log enrichment); library NNK2; higher = more nucleation; inactive = no reads after selection. An outline of the steps: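 Three technical output replicates were used for random libraries. Psi-negative yeast expressing peptides of 20 random codons fused to Sup35N were induced with 100 μM copper sulfate for 24 hours and grown 7 days at 30°C on medium lacking adenine and uracil, and input and output plasmid inserts were Illumina-sequenced, excluding sequences with under 100 input reads. The nucleation score is the DiMSum log enrichment of output over input reads, centred on the mode score of non-aggregating sequences.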
In the case of VSAKNIMSSAAER, the amyloid nucleation score is 0.451 ± 0.35.

The substance VYIWSCCVKSFESSTFDDDN had an amyloid nucleation score of 7.972 ± 0.074.

Take LYYAQSANRRLSGAWRFLF: the amyloid nucleation score is -0.281 ± 0.79.

Regarding MHCIFSNLV, the amyloid nucleation score result was “inactive”.

IKTGSGVARVGYFLC: the amyloid nucleation score stood at 0.42 ± 0.47.

The substance VVIFCVVFWV had an amyloid nucleation score of 0.129 ± 0.76.

On to RFQFSICHYYDLNFS, for which the amyloid nucleation score was 0.594 ± 0.66.

Regarding YTGYGTWNLNIRNACNRVSW, the amyloid nucleation score entry was “inactive”.

Regarding CTTFSFADIEFVMKRTRAIL, the amyloid nucleation score entry was “inactive”.

EYRVYYSRLRSLSTEEPMAS had an amyloid nucleation score of -0.299 ± 0.79.

SELIGFLGGNQIELA: the amyloid nucleation score stood at 0.027 ± 0.34.

PDVMLCIFYIDFMQGFFDLY: the amyloid nucleation score was 5.08 ± 0.07.

IRRWFRLNNGRM had an amyloid nucleation score of -0.113 ± 0.79.

With ISSKITRLSPGGLVS, the amyloid nucleation score entry was “inactive”.

With LSKSVLKNTWGVYVI, the amyloid nucleation score is -0.358 ± 0.79.

Substance SWTLFKTLMWIRHILFVECR yielded an amyloid nucleation score of -0.973 ± 0.55.

With TRFGPPVHSKLCPPAMWPGW, the amyloid nucleation score was determined as 0.691 ± 0.23.

For the substance CPCNGTNSLRLAYGYTGNNS, the amyloid nucleation score entry is “inactive”.

Take PSYRCK: the amyloid nucleation score entry is “inactive”.

Turning to RHSKFRVITENMIDPFQRS, the amyloid nucleation score stood at 0.249 ± 0.64.

LIFNYRVFLSFSW gave an amyloid nucleation score of -0.356 ± 1.1.

Take FYAVHLCLTYALGCRLVTSC: the amyloid nucleation score was -0.932 ± 0.76.

As for LNCFYEPTSGSKLYTLRPAF, the amyloid nucleation score was -0.107 ± 1.

On to VSYFPYRDVLGTINNV, for which the amyloid nucleation score was 0.729 ± 0.54.

In turn, FSLCSLAEVAKKVTTLRRDG registered an amyloid nucleation score of -0.277 ± 1.1.

DTTALHRVTASTLGHRFSLG registered an amyloid nucleation score of 0.58 ± 0.56.

Substance APWYIL showed an amyloid nucleation score of 0.225 ± 0.36.

VMRNKILF showed an amyloid nucleation score of -0.341 ± 0.79.

RHRSNCMRRSTVSVGNVRES displayed an amyloid nucleation score of 0.427 ± 0.23.

Consider HYSFRSIAGLQAVCGDNCMD, for which the amyloid nucleation score worked out at 0.427 ± 0.52.

As to VCFVICDSPSFYV, the amyloid nucleation score stood at 7.901 ± 0.044.

In turn, CMFVILMYLHQGRKLNAVPS had an amyloid nucleation score of -1.02 ± 1.1.

In turn, LCEISRASPQGGDRDRAMGK had an amyloid nucleation score of -0.018 ± 0.55.

For SSSNLG, the amyloid nucleation score entry is “inactive”.

Substance AVRLSEV registered an amyloid nucleation score of 0.421 ± 0.38.

In turn, PSVGYSITWGNILLYRIGFR returned an amyloid nucleation score of -1.19 ± 1.

Consider TYKAAICLGCS, for which the amyloid nucleation score is 6.548 ± 0.033.

On to IFYIVGYFAHLMMWNTRRDG, for which the amyloid nucleation score result was “inactive”.

SLSRFCMNLCRFSGGIQSVR: the amyloid nucleation score is -1.34 ± 0.42.

QHYRSYTSILVCSYFYFDAQ came in with an amyloid nucleation score of 3.12 ± 0.12.

The substance CAVRWVGVS registered an amyloid nucleation score of 1.12 ± 0.23.

Consider YGSQISLTKEARQEKDTSGS, for which the amyloid nucleation score is -0.815 ± 0.34.

Take DDERYDVPLWSFGVRYYISG: the amyloid nucleation score was -0.384 ± 0.54.

Substance MLTTMCDELQLLVGPLGDRV gave an amyloid nucleation score of 0.253 ± 0.3.

In the case of DFMIKSISVLFTVSISSNRV, the amyloid nucleation score is -1.69 ± 0.73.

MYNQC yielded an amyloid nucleation score of 0.271 ± 0.44.

LFPLI yielded an amyloid nucleation score of 1.24 ± 0.44.

As to NIRAKNRDFRLGLANRKETA, the amyloid nucleation score stood at 1.15 ± 0.27.

With QNQVGIRGILHHMMNSLRTQ, the amyloid nucleation score came out at 3.87 ± 0.055.

VFLKQVEPEGGQYETFLVVV: the amyloid nucleation score is -0.19 ± 1.1.

For the substance SCWYKRWTPCSRDYDSFYIA, the amyloid nucleation score came to 2.72 ± 0.09.

With YYNKNLFCLFSVLEYKTTFL, the amyloid nucleation score came out at 4.09 ± 0.056.

IDDDIFVMCCIEKHVLVCEF yielded an amyloid nucleation score of 3.26 ± 0.047.

Turning to GFWITVESNNTYNRFLDISC, the amyloid nucleation score was found to be 2.67 ± 0.089.

With ACNSTFNRIEVYARVMKDTS, the amyloid nucleation score was 3.96 ± 0.094.

On to SRQVTSCVVRRSQCIWSG, for which the amyloid nucleation score was found to be 1.2 ± 0.27.

As to HVEWMTCWLVSNNTDPRWDR, the amyloid nucleation score was 0.911 ± 0.27.

As for QCTHPGLVVIYRSLAKDYLS, the amyloid nucleation score is -0.285 ± 0.48.

Consider SYLFVSVDLHFIEVFYR, for which the amyloid nucleation score came to 1.44 ± 0.12.

In the case of DFPRRWSWFITRESWGVWRT, the amyloid nucleation score was found to be 1.65 ± 0.34.

IFYNIVE gave an amyloid nucleation score of -1.31 ± 0.78.

For SRSLWYVLNYYV, the amyloid nucleation score is 0.062 ± 0.29.

The substance MSLPRSPAWGV had an amyloid nucleation score of 0.863 ± 0.27.

ADEEFRRFIVPSFLPGSCSS registered an amyloid nucleation score of -0.08 ± 0.39.

As to ELLHFSSISTS, the amyloid nucleation score entry was “inactive”.

As for DGGNDWRTKYSGTPVVWGTV, the amyloid nucleation score amounted to 1.73 ± 0.13.

Take FPAWTDGVVLVRVVGASTEE: the amyloid nucleation score is -0.132 ± 0.34.

On to TCYTKPLNEYYE, for which the amyloid nucleation score was found to be 0.011 ± 0.56.

Regarding KYLGLGAFCVTVDYQRVWDA, the amyloid nucleation score was 0.879 ± 0.58.

As for YLSTFCGVFIYLVNIPLGRA, the amyloid nucleation score was found to be 4.48 ± 0.058.

Substance PKIKHMMAWVMFVAFKVCSC came in with an amyloid nucleation score of -0.063 ± 0.29.

The substance VLGKFVEPGMAGLSVTPFRM registered an amyloid nucleation score of 0.829 ± 0.57.

In turn, NGCQV yielded an amyloid nucleation score of 0.545 ± 0.6.

With VSRSSKMMFFVDHLRYC, the amyloid nucleation score was found to be 1.55 ± 0.58.

For the substance FMVDASLNQRMGINQFVCS, the amyloid nucleation score was -1.34 ± 0.76.

For IVEVVFRSIPIAMDSCCCSN, the amyloid nucleation score was -1.14 ± 0.28.

Take IVMYRLRLLQDATN: the amyloid nucleation score came to 0.259 ± 0.65.

On to RAVRDLLVLNIINVAVTSIN, for which the amyloid nucleation score came out at 7.495 ± 0.043.

Turning to MLQPPPNESVSIILLKGSPA, the amyloid nucleation score turned out to be 5.165 ± 0.042.

As for YSDISQTRSASAIALGECRG, the amyloid nucleation score is -0.879 ± 0.64.

In turn, MSAYR displayed an amyloid nucleation score of -0.018 ± 0.65.

In the case of NEIASEYSYRPLLRGWSS, the amyloid nucleation score was -0.119 ± 0.4.

VGPVNQRWGVTISLAPEVCF had an amyloid nucleation score of 0.553 ± 0.57.

SLQSYGVYR returned an amyloid nucleation score of -0.359 ± 0.76.

NIFQGAICYQTYGGVFPYFL showed an amyloid nucleation score of 6.151 ± 0.042.

For SSSRGRVCP, the amyloid nucleation score amounted to 0.012 ± 0.63.

The substance SIGKYLCYA returned an amyloid nucleation score of 2.38 ± 0.057.

Turning to VMLNWKMVYRTRDFNLQSYD, the amyloid nucleation score was 1.85 ± 0.15.

Regarding FVSRIGIFLS, the amyloid nucleation score was -1.28 ± 0.78.

Consider VMMIQTVQFRLTSKSSGMSR, for which the amyloid nucleation score was 5.259 ± 0.043.

The substance IGLKVSSFNDKVLSGA registered an amyloid nucleation score of -0.285 ± 0.63.

As for SALHLYGFFLRFFERSSVIL, the amyloid nucleation score is -0.608 ± 0.76.

For the substance AGCVVNHTPRLLGRSTKRLK, the amyloid nucleation score was found to be 3.1 ± 0.062.

YVPYLLTLCCRCSSLGFR displayed an amyloid nucleation score of -1.08 ± 1.1.

RFICYSHTFTGSMLSISIR gave an amyloid nucleation score of 8.061 ± 0.077.

In turn, DSLMQVNWN came in with an amyloid nucleation score of 1.01 ± 0.36.

In turn, VRKSFLCCKQMGLLF yielded an amyloid nucleation score of -1.14 ± 0.64.

VIISCTYVNY had an amyloid nucleation score of -0.002 ± 0.4.

NFEHVASLIFGLLILDSQSL returned an amyloid nucleation score of -1.43 ± 0.49.

Regarding LSVGLNKYRNA, the amyloid nucleation score is -0.919 ± 0.76.

As for HLGRYAVKMCYWKGLFFYNN, the amyloid nucleation score turned out to be 0.29 ± 0.74.

Substance SWIIGVWIR yielded an amyloid nucleation score of -0.287 ± 0.45.

The substance NFSYASNTEHRPVSNIFWEL had an amyloid nucleation score of -1.33 ± 0.62.

Substance PITVYWCCDNS yielded an amyloid nucleation score of 3.84 ± 0.087.

DIRSRINMLRYTFF: the amyloid nucleation score entry is “inactive”.

In the case of ASRWHLIAESLSLSAVLNSF, the amyloid nucleation score entry is “inactive”.

Take LEAYVGLLCLSGRLTFSGKC: the amyloid nucleation score worked out at 2.6 ± 0.1.

IRNNPCFQSGDVGY yielded an amyloid nucleation score of -0.088 ± 1.1.

For VLGNSLELVGNRLDSI, the amyloid nucleation score is 4.11 ± 0.066.

DIRCDLGRVFN gave an amyloid nucleation score of -0.17 ± 0.79.

VHPGTR had an amyloid nucleation score of 4.08 ± 0.065.

Take GVHTLWNRMKWPIENRVYGS: the amyloid nucleation score is 1.59 ± 0.3.

With FINGGSCYAFFCKYGYRMHR, the amyloid nucleation score is -0.109 ± 0.37.

SDAVFFLLSNGNRPPRAAMS: the amyloid nucleation score was 0.155 ± 0.29.

FVFRWNSVPIRLRVEQGCVF had an amyloid nucleation score of 0.532 ± 0.47.

WSSERWPEWIG: the amyloid nucleation score is 0.027 ± 0.24.

As to WEDGTFEV, the amyloid nucleation score is -0.219 ± 0.61.

As to AVYSGHSYVKMSWVSGGRYW, the amyloid nucleation score was 0.747 ± 0.43.

NARQSLADSSAVRPDARTLI: the amyloid nucleation score turned out to be 0.456 ± 0.45.

Substance SISRVMEMTSLSIHRFIRLC showed an amyloid nucleation score of -0.918 ± 1.1.

Take LDYFFAAL: the amyloid nucleation score entry is “inactive”.

Regarding WYRTGMGNLLSRGDVDTVRT, the amyloid nucleation score worked out at 0.131 ± 0.55.

Substance VDFIKIKRIGPER returned an amyloid nucleation score of -0.709 ± 0.38.

Regarding DSRTFGITYYNDVLITGLCR, the amyloid nucleation score is -0.709 ± 0.39.

For the substance PHHMIDAGASPSLN, the amyloid nucleation score is -1.52 ± 0.62.

CSCNRLDYWAVNGRARRFKL showed an amyloid nucleation score of 0.932 ± 0.81.

With PRHSSSPALILWNYPNLTGI, the amyloid nucleation score was -0.708 ± 0.37.

Consider NSLNI, for which the amyloid nucleation score was -0.127 ± 1.1.

As to HDPRIYW, the amyloid nucleation score worked out at 0.441 ± 0.27.

With RLGEWECTHQVPFHSRWACG, the amyloid nucleation score is -0.087 ± 0.76.

Regarding LENLHTLC, the amyloid nucleation score entry was “inactive”.

As for NYLASGQIIWLGYPSRSLSL, the amyloid nucleation score result is “inactive”.

KPVGPVYAS displayed an amyloid nucleation score of -0.262 ± 0.48.

The substance RSTDLVSIFRMDLAIRINVL registered an amyloid nucleation score of 0.815 ± 0.13.

IMGKI registered an amyloid nucleation score of 0.163 ± 0.79.

Take SAFVVQFVK: the amyloid nucleation score is -0.31 ± 0.42.

Regarding LCFYK, the amyloid nucleation score amounted to 0.388 ± 0.32.

As for ACNNRMISGIRTTDCYIYRP, the amyloid nucleation score was -0.261 ± 0.33.

For the substance SYNYLYILRCYYLDVHSFRT, the amyloid nucleation score was -0.788 ± 0.76.

On to YYCRCYSGVLVTRAYQGNPE, for which the amyloid nucleation score is -0.168 ± 1.1.

ACANYGRVVWSSWDW registered an amyloid nucleation score of 0.388 ± 0.39.
